From the supplement of paper PMC7877785
± gives the uncertainty stated by the source.

Experiment: self-splicing fitness, log relative to wild type (ln ratio); higher = more splicing; Tetrahymena group I intron in knt gene, E. coli kanamycin selection, DiMSum; sequences stand for … in CUCUCU…GGAGGGAAAAGUUAUCAGGCAUGCACCUGGUAGCUAGUCUUUAAACCAAUAGAUUGCAUCGGUUUAAAAGGCAAGACCGUCAAAUUGCGGGAAAGGGGUCAACAGCCGUUCAGUACCAAGUCUCAGGGGAAACUUUGAGAUGGCCUUGCAAAGGGUAUGGUAAUAAGCUGACGGACAUGGUCCUAACCACGCAGCCAAGUCCUAAGUCAACAGAUCUUCUGUUGAUAUGGAUGCAGUUCACAGACUAAAUGUCGGUCGGGGAAGAUGUAUUCUUCUCAUAAGAUAUAGUCGGACCUCUCCUUAAUGGGAGCUAGCGGAUGAAGUGAUGCAACACUGGAGCCGCUGGGAACUAAUUUGUAUGCGAAAGUAUAUUGAUUAGUUUUGGAGUACUCGUGGUCG
How it was run: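 Fitness was computed with DiMSum as the error-weighted combination of replicate fold changes, kanamycin versus none, each normalised to wild type. The library randomised all eight intron nucleotides of the P1ex region, with the intron placed in the knt kanamycin-resistance gene on pET-22b(+) in E. coli BL21(DE3). Six replicate transformations were grown overnight at 37°C or 30°C on LB agar with or without 25 μg/mL kanamycin, plus 100 μg/mL carbenicillin, 50 μM IPTG and 0.2% rhamnose. Pooled colonies were amplicon-sequenced on an Illumina HiSeq 2500.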

| Sequence | self-splicing fitness (ln) (30 °C) | self-splicing fitness (ln) (37 °C) |
| --- | --- | --- |
| AGUUAGCAAUAUUACGUGUU | -3.25 ± 0.15 | -1.52 ± 0.14 |
| AUAAAGCAAUAUUACGCAUC | -3.37 ± 0.26 | -1.74 ± 0.3 |
| GAAUAGCAAUAUUACGUCGG | -3.21 ± 0.12 | -3.19 ± 0.2 |
| AACAAGCAAUAUUACGUUUC | -4.46 ± 0.22 | -2.95 ± 0.15 |
| GAUCAGCAAUAUUACGCAAG | -1.99 ± 0.15 | -1.34 ± 0.14 |
| UUAUAGCAAUAUUACGGAAG | -2.21 ± 0.26 | -1.77 ± 0.26 |
| UUCGAGCAAUAUUACGGCAU | -2.95 ± 0.27 | -1.44 ± 0.19 |
| AUUGAGCAAUAUUACGAAGU | -1.71 ± 0.29 | -1.72 ± 0.42 |
| CAGUAGCAAUAUUACGGUAG | -1.21 ± 0.067 | 0.0261 ± 0.098 |
| UAACAGCAAUAUUACGGUUU | -1.14 ± 0.05 | -0.621 ± 0.063 |
| GUUUAGCAAUAUUACGUUGG | -3.81 ± 0.37 | -1.45 ± 0.23 |
| GCGGAGCAAUAUUACGAGGG | -4.49 ± 0.36 | -2.93 ± 0.34 |
| AAUCAGCAAUAUUACGAGCC | -2.39 ± 0.16 | -0.744 ± 0.19 |
| UUACAGCAAUAUUACGGAGA | -1.79 ± 0.1 | -1.11 ± 0.13 |
| CGUGAGCAAUAUUACGAACU | -2.23 ± 0.3 | -0.177 ± 0.29 |
| ACAGAGCAAUAUUACGUAUA | -3.37 ± 0.26 | -2.72 ± 0.31 |
| UAUGAGCAAUAUUACGGUUU | -3.7 ± 0.2 | -2.43 ± 0.21 |

| Sequence | self-splicing fitness (ln) (30 °C) | self-splicing fitness (ln) (37 °C) |
| --- | --- | --- |
| UCCUAGCAAUAUUACGAUUA | – | -3.41 ± 0.46 |
| GGACAGCAAUAUUACGAAUU | -0.588 ± 0.076 | 0.11 ± 0.11 |
| UAUUAGCAAUAUUACGCUCA | 0.0548 ± 0.15 | 0.336 ± 0.17 |
| ACUGAGCAAUAUUACGAAAC | -4.21 ± 0.42 | -1.42 ± 0.38 |
| UAAAAGCAAUAUUACGUGCA | -0.586 ± 0.067 | -0.196 ± 0.079 |
| GAGGAGCAAUAUUACGGCCU | -1.99 ± 0.38 | – |
| GAAAAGCAAUAUUACGGGAG | -2.95 ± 0.097 | -1.95 ± 0.086 |
| CUACAGCAAUAUUACGAACA | -2.94 ± 0.18 | -2.49 ± 0.21 |
| GUGUAGCAAUAUUACGUAAC | -1.66 ± 0.14 | -0.0998 ± 0.14 |
| CCCGAGCAAUAUUACGUAUG | -4.9 ± 0.45 | -2 ± 0.19 |
| GCCUAGCAAUAUUACGAGGC | -4.1 ± 0.36 | -1.77 ± 0.26 |
| UUAGAGCAAUAUUACGUUUC | -3.04 ± 0.2 | – |
| AACGAGCAAUAUUACGAGUA | -3.14 ± 0.17 | -2.12 ± 0.14 |
| GUUGAGCAAUAUUACGUGAG | -1.93 ± 0.15 | -1.42 ± 0.19 |
| CGACAGCAAUAUUACGCCCU | -1.46 ± 0.1 | -0.191 ± 0.11 |
| AAUAAGCAAUAUUACGGAUU | -1.34 ± 0.096 | -0.185 ± 0.12 |
| GUUUAGCAAUAUUACGGACU | – | 1.32 ± 0.45 |
